Where a chain is given by its changes, count along the chain named.
These substances were tested against T1, human C4b (human) (UniProt P0C0L4).
T1 sequence: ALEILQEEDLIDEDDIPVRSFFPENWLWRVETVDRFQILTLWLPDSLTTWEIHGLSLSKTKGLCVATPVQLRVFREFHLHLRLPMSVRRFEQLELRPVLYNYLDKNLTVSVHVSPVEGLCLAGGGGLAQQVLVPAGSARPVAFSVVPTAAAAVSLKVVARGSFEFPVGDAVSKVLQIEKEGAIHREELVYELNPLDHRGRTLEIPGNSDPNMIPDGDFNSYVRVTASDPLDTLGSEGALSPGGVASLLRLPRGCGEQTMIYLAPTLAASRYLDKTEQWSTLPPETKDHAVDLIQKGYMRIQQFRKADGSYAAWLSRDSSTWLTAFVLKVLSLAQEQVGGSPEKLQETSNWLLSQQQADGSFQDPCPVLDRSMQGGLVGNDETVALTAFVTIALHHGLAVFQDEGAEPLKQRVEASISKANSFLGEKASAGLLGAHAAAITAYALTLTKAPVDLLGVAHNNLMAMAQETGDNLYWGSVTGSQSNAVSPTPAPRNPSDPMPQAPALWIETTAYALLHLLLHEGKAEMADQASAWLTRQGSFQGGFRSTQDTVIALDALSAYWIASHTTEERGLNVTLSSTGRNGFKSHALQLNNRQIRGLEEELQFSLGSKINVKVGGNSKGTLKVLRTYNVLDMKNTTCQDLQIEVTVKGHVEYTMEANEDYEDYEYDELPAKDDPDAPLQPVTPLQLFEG

| Substance | C4b Screen Ref Fold (fold of reference) |
| --- | --- |
| CFI-HSA variant K504E (enzyme) | 0.24 |
| CFI-HSA variant P384G (enzyme) | 0.1 |

What follows are substances tested against T2, human C4b (human) (UniProt P0C0L5).
T2 sequence: T1 sequence with A151T, D317G, P364L, C365S, L368I, D369H, N420S, V451A, L454R, S530A

| Substance | C4b Screen Ref Fold (fold vs CFI-HSA wild type) | C4b Screen Ref Fold (fold of CFI-HSA wild type) |
| --- | --- | --- |
| CFI-HSA variant E457G; E461Q-R462K; F464Y (enzyme) | 5.5 | – |
| CFI-HSA variant E457G; K534Q (enzyme) | – | 5.24 |
| CFI-HSA variant E457G; N531G; E416A (enzyme) | – | 5.02 |
| CFI-HSA variant K504E (enzyme) | 0.24 | – |
| CFI-HSA variant P384G (enzyme) | 0.04 | – |

These substances were tested against soluble human C3b (human) (UniProt P01024).

| Substance | iC3b Screen Ref Fold (fold vs CFI-HSA wild type) | iC3b Screen Ref Fold (fold of CFI-HSA wild type) | iC3b Screen Ref Fold (fold of reference) |
| --- | --- | --- | --- |
| CFI-HSA variant E457G; E461Q-R462K; F464Y (enzyme) | 0.69 | – | – |
| CFI-HSA variant E457G; K534Q (enzyme) | – | 1.15 | – |
| CFI-HSA variant E457G; N531G; E416A (enzyme) | – | 2.66 | – |
| CFI-HSA variant K504E (enzyme) | 0.88 | – | 0.12 |
| CFI-HSA variant P384G (enzyme) | 0.03 | – | 0.01 |

Target: T1, human C4b (human)
Remark: another data set of the same source

| Substance | C4c EC50 (nM) | C4c EC50 |
| --- | --- | --- |
| CFI-HSA variant E457G; E461Q-R462K; F464Y (enzyme) | 65.2 nM | – |
| CFI-HSA variant E457G; E461Q; F464Y (enzyme) | – | 40.3 nM |
| CFI-HSA variant E457G; E461Q; F464Y; N531G; GGSSGG (SEQ ID NO: 6); CR1 (ccp15-17) (from UniProt P17927) (enzyme) | 38.4 nM | – |
| CFI-HSA variant E457G; E461Q; R462K (enzyme) | – | 60.2 nM |
| CFI-HSA variant E457G; E530Y (enzyme) | 332 nM | – |
| CFI-HSA variant E457G; F464Y (enzyme) | – | 82.3 nM |
| CFI-HSA variant E457G; K534Q (enzyme) | – | 55.2 nM |
| CFI-HSA variant E457G; N531G; E416A (enzyme) | 5.4 nM | – |
| CFI-HSA variant E457G; N531G; E461Q; R462K; F464Y; E530Y; GGSSGG (SEQ ID NO: 6); CR1(ccp15-17) (from UniProt P17927) (enzyme) | 86.7 nM | – |
| CFI-HSA variant E457G; N531G; E461Q; R462K; F464Y; GGSSGG (SEQ ID NO: 6); CR1 (ccp1-3) (from UniProt P17927) (enzyme) | > 1000 nM | – |
| CFI-HSA variant E457G; P535G; WT; GGSSGG (SEQ ID NO: 6); CR1(ccp15-17) (enzyme) | – | 57.5 nM |
| CFI-HSA variant E457G; R462K (enzyme) | – | 52.7 nM |
| CFI-HSA variant E457G; R462K; F464Y (enzyme) | – | 84.6 nM |
| CFI-HSA variant E457G; Y408L (enzyme) | – | 108 nM |
| CFI-HSA variant E461Q; F464Y (enzyme) | – | 123 nM |
| CFI-HSA variant E461Q; R462K (enzyme) | – | 95.9 nM |
| CFI-HSA variant E461Q; R462K; F464Y (enzyme) | – | 159 nM |
| CFI-HSA variant F464A (enzyme) | – | > 1000 nM |
| CFI-HSA variant F464I (enzyme) | – | > 1000 nM |
| CFI-HSA variant F464L (enzyme) | – | > 1000 nM |
| CFI-HSA variant K14A; D425R; Y408L-N531G (enzyme) | – | 58.1 nM |
| CFI-HSA variant K534M (enzyme) | – | 154 nM |

| Substance | C4c EC50 (nM) | C4c EC50 |
| --- | --- | --- |
| CFI-HSA variant K534N (enzyme) | – | 300 nM |
| CFI-HSA variant N531G; D425R; E530Y (enzyme) | 162 nM | – |
| CFI-HSA variant N531G; E457G; R462K; F464Y (enzyme) | – | 33 nM |
| CFI-HSA variant N531G; E461Q; F464Y (enzyme) | – | 28.8 nM |
| CFI-HSA variant N531G; E461Q; R462K; F464Y (enzyme) | – | 24 nM |
| CFI-HSA variant N531G; E530Y (enzyme) | 38.2 nM | – |
| CFI-HSA variant N531G; F464Y (enzyme) | – | 63.5 nM |
| CFI-HSA variant N531G; R462K (enzyme) | – | 51.2 nM |
| CFI-HSA variant N531G; R462K; F464Y (enzyme) | – | 54.8 nM |
| CFI-HSA variant T346K; Y408L; N531G (enzyme) | – | 209 nM |
| CFI-HSA variant T407G (enzyme) | – | 329 nM |
| CFI-HSA variant T407G; E457G (enzyme) | – | 545 nM |
| CFI-HSA variant T407G; N531G (enzyme) | – | 620 nM |
| CFI-HSA variant T407G; Y408L (enzyme) | – | 435 nM |
| CFI-HSA variant T407G; Y408L; E457G (enzyme) | – | 300 nM |
| CFI-HSA variant Y408L; D425R; E530Y (enzyme) | 900 nM | – |
| CFI-HSA variant Y408L; E457G; E461Q (enzyme) | – | 36.1 nM |
| CFI-HSA variant Y408L; E457G; E461Q; R462K; N531G; GGSSGG (SEQ ID NO: 6); CR1 (ccp15-17) (from UniProt P17927) (enzyme) | 91 nM | – |
| CFI-HSA variant Y408L; E457G; E530Y (enzyme) | 26.5 nM | – |
| CFI-HSA variant Y408L; E457G; F464Y (enzyme) | – | 110 nM |
| CFI-HSA variant Y408L; E457G; N531G; D425R; E530Y (enzyme) | 92.9 nM | – |
| CFI-HSA variant Y408L; E457G; N531G; E530Y (enzyme) | 35.4 nM | – |

| Substance | C4c EC50 (nM) | C4c EC50 |
| --- | --- | --- |
| CFI-HSA variant Y408L; E457G; N531G; WT; GGSSGG (SEQ ID NO: 6); CR1(ccp15-17) (enzyme) | – | 113 nM |
| CFI-HSA variant Y408L; E457G; R462K (enzyme) | – | 142 nM |
| CFI-HSA variant Y408L; E457G; R462K; F464Y (enzyme) | – | 156 nM |
| CFI-HSA variant Y408L; E457G; R462K; F464Y; N531G; GGSSGG (SEQ ID NO: 6); CR1 (ccp15-17) (from UniProt P17927) (enzyme) | 76.4 nM | – |
| CFI-HSA variant Y408L; E461Q; F464Y (enzyme) | – | 105 nM |
| CFI-HSA variant Y408L; E530K; N531G (enzyme) | – | 111 nM |
| CFI-HSA variant Y408L; E530R; N531G (enzyme) | – | 229 nM |
| CFI-HSA variant Y408L; E530Y (enzyme) | > 1000 nM | – |
| CFI-HSA variant Y408L; N531G (enzyme) | – | 71.9 nM |
| CFI-HSA variant Y408L; N531G; D425R; E530Y (enzyme) | 41.2 nM | – |
| CFI-HSA variant Y408L; N531G; E457G; F464Y (enzyme) | – | 23.2 nM |
| CFI-HSA variant Y408L; N531G; E461Q; F464Y (enzyme) | – | 46.7 nM |
| CFI-HSA variant Y408L; N531G; E461Q; R462K (enzyme) | – | 24.5 nM |
| CFI-HSA variant Y408L; N531G; E530Y (enzyme) | 54 nM | – |
| CFI-HSA variant Y408L; N531G; F464Y (enzyme) | – | 66.5 nM |
| CFI-HSA variant Y408L; N531G; P535G; WT; GGSSGG (SEQ ID NO: 6); CR1(ccp15-17) (enzyme) | – | 62.4 nM |
| CFI-HSA variant Y408L; N531G; R462K (enzyme) | – | 126 nM |
| CFI-HSA variant Y408L; N531G; R462K; F464Y (enzyme) | – | 98.2 nM |
| CFI-HSA variant Y408L; N531G; WT; GGSSGG (SEQ ID NO: 6); CR1(ccp15-17) (enzyme) | – | 40.9 nM |
| CFI-HSA variant Y553K (enzyme) | 198 nM | – |

Source: US20230038638A1, “COMPLEMENT FACTOR I-RELATED COMPOSITIONS AND METHODS” (published 2023)
